Measured values published in patent US12202907B2, “Nucleic acids encoding and methods of producing proteins comprising antibody chains” (Innate Pharma, priority 2018, dated 2025).

Legend:
[1] = molecular target: T1, CD39 expressed by Ramos human lymphoma cells (Homo sapiens, UniProt P49961); assay: Inhibition of the enzymatic activity of cellular CD39 in Ramos cells; assay type: cell-based
T1 construct: cells that endogenously express CD39 at their surface; host or cells: Ramos
T1 sequence (P49961 1-510): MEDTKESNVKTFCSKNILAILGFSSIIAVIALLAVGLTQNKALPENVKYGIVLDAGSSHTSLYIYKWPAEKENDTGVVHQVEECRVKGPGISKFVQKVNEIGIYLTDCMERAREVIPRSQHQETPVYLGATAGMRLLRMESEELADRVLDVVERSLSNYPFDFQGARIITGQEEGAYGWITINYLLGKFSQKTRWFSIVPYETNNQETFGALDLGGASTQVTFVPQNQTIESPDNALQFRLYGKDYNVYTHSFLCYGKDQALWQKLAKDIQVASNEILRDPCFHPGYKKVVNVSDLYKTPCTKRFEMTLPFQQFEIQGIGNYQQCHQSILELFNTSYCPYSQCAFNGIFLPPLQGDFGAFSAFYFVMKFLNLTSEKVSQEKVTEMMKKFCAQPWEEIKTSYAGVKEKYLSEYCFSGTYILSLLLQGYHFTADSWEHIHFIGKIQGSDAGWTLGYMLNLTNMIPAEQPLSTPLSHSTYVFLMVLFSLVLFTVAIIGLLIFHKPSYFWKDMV
Procedure: The inhibition of the CD39 enzymatic activity in CD39-expressing cells by antibodies was evaluated using Cell Titer GIo™ (Promega, reference G7571) that allows assessment of ATP hydrolysis through use of a reagent that generates a luminescent signal proportional to the amount of ATP present. The assay was thus designed to permit assessment of the inhibition of ATP hydrolyzed by CD39 in the cell culture supernatant. Briefly, 5×10^4 Ramos human lymphoma cells, 5×10^3 human CD39−, cynomolgus CD39—and mouse CD39− expressing CHO cells, were incubated 1 hour at 37° C. with anti-CD39 antibodies from 30 μg/ml to 5×10^−4 μg/ml. Cells were then incubated with 20 μM ATP for 1 additional hour at 37° C. Plates were centrifuged for 2 min at 400 g and 50 μl cell supernatant are transferred in a luminescence microplate (white wells). 50 μl CellTiter-Glo™ Reagent (CTG) was added to the supernatant and emitted light was quantified after a 5 min incubation in the dark using a Enspire™ luminometer. Anti-CD39 antibody efficacy was determined by comparing emitted light in presence of antibody with ATP alone (maximal light emission) and ATP together with cells (minimal light emission).

[2] = molecular target: T2, Human CD39-L4 (NTPDase5, ENTPD5) (Homo sapiens, UniProt O75356); assay: ELISA titration on CD39-L4; assay type: binding
T2 sequence (O75356 25-428): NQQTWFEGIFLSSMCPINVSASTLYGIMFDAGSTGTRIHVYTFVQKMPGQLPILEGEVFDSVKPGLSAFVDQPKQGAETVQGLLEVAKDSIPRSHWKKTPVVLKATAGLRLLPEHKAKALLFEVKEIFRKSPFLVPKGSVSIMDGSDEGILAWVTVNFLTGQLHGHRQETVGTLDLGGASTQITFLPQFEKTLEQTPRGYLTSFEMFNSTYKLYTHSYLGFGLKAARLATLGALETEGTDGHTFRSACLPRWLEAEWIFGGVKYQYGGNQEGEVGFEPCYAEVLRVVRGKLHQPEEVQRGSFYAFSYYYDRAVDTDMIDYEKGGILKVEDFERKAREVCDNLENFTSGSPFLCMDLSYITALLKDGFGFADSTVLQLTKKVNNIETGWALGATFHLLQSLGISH
Procedure: Antibody I-394 was tested for binding to recombinant human CD39 isoforms (Rec-huCD39 isoforms) having amino acid sequences shown below were coated in 96-well plate in PBS 1X at 500 ng/ml or 1 μg/ml at 4° C. overnight. Wells were washed in TBS Tween® 20 (polysorbate 20), and further saturated 2H at RT in TBS Blocking buffer. Dose range concentration of primary antibody was incubated in TBS blocking buffer for 2 h at RT. Wells were washed in TBS Tween® 20 (polysorbate 20). […] Optical density was measured on Enspire™ at OD=450.

[3] = molecular target: T3, CHO cells expressing murine CD39 (Mus musculus, UniProt P55772); assay: Antibody titration on CHO-moCD39 by flow cytometry; assay type: binding; details: qualitative
T3 construct: expressed in transfected cells; host or cells: CHO
T3 sequence (P55772 1-510): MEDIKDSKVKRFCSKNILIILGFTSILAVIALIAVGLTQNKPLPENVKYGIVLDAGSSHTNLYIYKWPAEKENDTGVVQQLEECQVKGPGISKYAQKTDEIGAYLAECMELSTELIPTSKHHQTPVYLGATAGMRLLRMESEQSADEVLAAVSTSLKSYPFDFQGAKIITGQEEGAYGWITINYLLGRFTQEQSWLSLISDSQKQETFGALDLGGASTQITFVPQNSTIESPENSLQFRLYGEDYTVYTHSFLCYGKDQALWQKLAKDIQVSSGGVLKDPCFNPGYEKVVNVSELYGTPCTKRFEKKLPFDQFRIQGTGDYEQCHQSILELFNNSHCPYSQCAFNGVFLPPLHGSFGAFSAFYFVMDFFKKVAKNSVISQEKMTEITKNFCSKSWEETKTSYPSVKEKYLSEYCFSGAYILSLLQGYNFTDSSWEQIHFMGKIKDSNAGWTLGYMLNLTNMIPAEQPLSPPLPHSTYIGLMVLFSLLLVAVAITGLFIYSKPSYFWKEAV
Procedure: Antibody I-394 was tested in two repeated experiments for binding to CHO cells expressing human CD39, CHO cells expressing cynomolgus (Macaca fascicularis) CD39, CHO cells expressing murine CD39, and human Ramos lymphoma cells (ATCC™, reference CRL-1596). Cells were incubated with various concentration of unlabeled anti-CD39 antibody from 30 μg/ml to 5×10^−4 μg/ml, for 30 minutes at 4° C. After washes, cells were incubated with Goat anti-mouse H+L labeled secondary antibody for 30 min at 4° C.

I-394: anti-CD39 antibody, VH SEQ ID NO: 6, VL SEQ ID NO: 7, human IgG1 Fc with L234A/L235E/G237A/A330S/P331S
inhibition maximum, cellular CD39 ([1]; Ramos cells): 81.6%
potency at blocking CD39 enzymatic activity relative to other antibodies ([1]; Ramos cells): greater potency compared to all other antibodies tested
blocking CD39 enzymatic activity in tumor (Ramos) cells ([1]; qualitative): highly potent at blocking CD39 enzymatic activity
binding to CD39-L4 in ELISA [2]: not to any of the isoforms CD39-L1, -L2, -L3 or -L4
binding to cells expressing murine CD39 (CHO-moCD39) [3]: but not to cells expressing murine CD39
